# Reference: patent US20160367623A1, “AGONISTS OF GUANYLATE CYCLASE USEFUL FOR THE TREATMENT OF GASTROINTESTINAL DISORDERS, INFLAMMATION, CANCER AND OTHER DISORDERS” (priority 2015, published 2016)
# Bridge positions count the residues as written; N and C are the ends. Ends that are not written are not given here.
# Test system: patients with chronic idiopathic constipation (CIC)
# Test: Second phase 3 CIC trial: treatment emergent adverse events, safety
substance,measurement,setting,value
"Asn^1-Asp^2-Glu^3-Cys^4-Glu^5-Leu^6-Cys^7-Val^8-Asn^9-Val^10-Ala^11-Cys^12-Thr^13-Gly^14-Cys^15-Leu^16 (NDECELCVNVACTGCL; disulfide 4-12, 7-15) [Plecanatide]",Influenza like illness: events E,Active Combined (N = 936),1
same,Influenza like illness: patients %,Active Combined (N = 936),(0.1) %
same,Influenza like illness: patients (%),Active Combined (N = 936),(0.1) %
same,Influenza like illness: patients N,Active Combined (N = 936),1
same,Influenza: events E,Active Combined (N = 936),9
same,Influenza: patients %,Active Combined (N = 936),(1.0) %
same,Influenza: patients N,Active Combined (N = 936),9
same,"Injury, poisoning and procedural complications (SOC): events E",Active Combined (N = 936),19
same,"Injury, poisoning and procedural complications (SOC): patients %",Active Combined (N = 936),(1.7) %
same,"Injury, poisoning and procedural complications (SOC): patients N",Active Combined (N = 936),16
same,"Insomnia, events E",Active Combined (N = 936),3
same,"Insomnia, patients (%)",Active Combined (N = 936),(0.3) %
same,"Insomnia, patients N",Active Combined (N = 936),3
same,"Intervertebral disc disorder, Mild: events E",Active Combined (N = 936),0
same,"Intervertebral disc disorder, Mild: patients N",Active Combined (N = 936),0
same,"Intervertebral disc disorder, Moderate: events E",Active Combined (N = 936),0
same,"Ligament sprain, events E",Active Combined (N = 936),2
same,"Ligament sprain, patients (%)",Active Combined (N = 936),(0.2) %
same,"Ligament sprain, patients N",Active Combined (N = 936),2
same,"Musculoskeletal and connective tissue disorders [System Organ Class], events E",Active Combined (N = 936),19
same,"Musculoskeletal and connective tissue disorders [System Organ Class], patients (%)",Active Combined (N = 936),(2.0) %
same,"Musculoskeletal and connective tissue disorders [System Organ Class], patients N",Active Combined (N = 936),19
same,"Musculoskeletal and connective tissue disorders, Mild: events E",Active Combined (N = 936),10
same,"Musculoskeletal and connective tissue disorders, Mild: patients (%)",Active Combined (N = 936),(1.1) %
same,"Musculoskeletal and connective tissue disorders, Mild: patients N",Active Combined (N = 936),10
same,"Musculoskeletal and connective tissue disorders, Moderate: events E",Active Combined (N = 936),9
same,"Musculoskeletal and connective tissue disorders, Moderate: patients (%)",Active Combined (N = 936),(1.0) %
same,"Musculoskeletal and connective tissue disorders, Moderate: patients N",Active Combined (N = 936),9
same,"Musculoskeletal and connective tissue disorders, Severe: events E",Active Combined (N = 936),0
same,"Musculoskeletal and connective tissue disorders, Severe: patients N",Active Combined (N = 936),0
same,Musculoskeletal and connective tissue disorders: events E,Active Combined (N = 936),19
same,Musculoskeletal and connective tissue disorders: patients (%),Active Combined (N = 936),(2.0) %
same,Musculoskeletal and connective tissue disorders: patients N,Active Combined (N = 936),19
same,"Musculoskeletal chest pain, Mild: events E",Active Combined (N = 936),1
same,"Musculoskeletal chest pain, Mild: patients (%)",Active Combined (N = 936),(0.1) %
same,"Musculoskeletal chest pain, Mild: patients N",Active Combined (N = 936),1
same,"Musculoskeletal chest pain, Moderate: events E",Active Combined (N = 936),0
same,"Musculoskeletal chest pain, Moderate: patients N",Active Combined (N = 936),0
same,"Musculoskeletal chest pain, Severe: events E",Active Combined (N = 936),0
same,"Musculoskeletal chest pain, Severe: patients N",Active Combined (N = 936),0
same,Musculoskeletal chest pain: events E,Active Combined (N = 936),1
same,Musculoskeletal chest pain: patients (%),Active Combined (N = 936),(0.1) %
same,Musculoskeletal chest pain: patients N,Active Combined (N = 936),1
same,"Musculoskeletal pain, Mild: events E",Active Combined (N = 936),1
same,"Musculoskeletal pain, Mild: patients (%)",Active Combined (N = 936),(0.1) %
same,"Musculoskeletal pain, Mild: patients N",Active Combined (N = 936),1
same,"Musculoskeletal pain, Moderate: events E",Active Combined (N = 936),1
same,"Musculoskeletal pain, Moderate: patients (%)",Active Combined (N = 936),(0.1) %
same,"Musculoskeletal pain, Moderate: patients N",Active Combined (N = 936),1
same,"Musculoskeletal pain, Severe: events E",Active Combined (N = 936),0
same,"Musculoskeletal pain, Severe: patients N",Active Combined (N = 936),0
same,Musculoskeletal pain: events E,Active Combined (N = 936),2
same,Musculoskeletal pain: patients (%),Active Combined (N = 936),(0.2) %
same,Musculoskeletal pain: patients N,Active Combined (N = 936),2
same,"SAE Musculoskeletal and connective tissue disorders, E events",Active Combined (N = 936),0
same,"SAE Musculoskeletal and connective tissue disorders, N patients",Active Combined (N = 936),0
same,"SAE Musculoskeletal and connective tissue disorders, No Reasonable Possibility, E events",Active Combined (N = 936),0
same,"SAE Musculoskeletal and connective tissue disorders, No Reasonable Possibility, N patients",Active Combined (N = 936),0
same,"SAE Musculoskeletal and connective tissue disorders, Reasonable Possibility, E events",Active Combined (N = 936),0
same,"SAE Musculoskeletal and connective tissue disorders, Reasonable Possibility, N patients",Active Combined (N = 936),0
same,"Skeletal injury, events E",Active Combined (N = 936),1
same,"Skeletal injury, patients (%)",Active Combined (N = 936),(0.1) %
same,"Skeletal injury, patients N",Active Combined (N = 936),1
same,"TE SAE: Musculoskeletal and connective tissue disorders, E events",Active Combined (N = 936),0
same,"TE SAE: Musculoskeletal and connective tissue disorders, N patients",Active Combined (N = 936),0
same,"TEAE Leading to Discontinuation: Infections and infestations, % patients",Active Combined (N = 936),(0.1) %
same,"TEAE Leading to Discontinuation: Infections and infestations, E events",Active Combined (N = 936),1
same,"TEAE Leading to Discontinuation: Infections and infestations, N patients",Active Combined (N = 936),1
same,"TEAE Leading to Discontinuation: Musculoskeletal and connective tissue disorders, E events",Active Combined (N = 936),0
same,"TEAE Leading to Discontinuation: Musculoskeletal and connective tissue disorders, N patients",Active Combined (N = 936),0
same,"TEAE Leading to Discontinuation: Viral infection, % patients",Active Combined (N = 936),(0.1) %
same,"TEAE Leading to Discontinuation: Viral infection, E events",Active Combined (N = 936),1
same,"TEAE Leading to Discontinuation: Viral infection, N patients",Active Combined (N = 936),1
same,"Musculoskeletal and connective tissue disorders [System Organ Class], events E",Plecanatide 3 mg (N = 467),8
same,"Musculoskeletal and connective tissue disorders [System Organ Class], patients (%)",Plecanatide 3 mg (N = 467),(1.7) %
same,"Musculoskeletal and connective tissue disorders [System Organ Class], patients N",Plecanatide 3 mg (N = 467),8
same,"Musculoskeletal and connective tissue disorders, Mild: events E",Plecanatide 3 mg (N = 467),4
same,"Musculoskeletal and connective tissue disorders, Mild: patients (%)",Plecanatide 3 mg (N = 467),(0.9) %
same,"Musculoskeletal and connective tissue disorders, Mild: patients N",Plecanatide 3 mg (N = 467),4
same,"Musculoskeletal and connective tissue disorders, Moderate: events E",Plecanatide 3 mg (N = 467),4
same,"Musculoskeletal and connective tissue disorders, Moderate: patients (%)",Plecanatide 3 mg (N = 467),(0.9) %
same,"Musculoskeletal and connective tissue disorders, Moderate: patients N",Plecanatide 3 mg (N = 467),4
same,"Musculoskeletal and connective tissue disorders, Severe: events E",Plecanatide 3 mg (N = 467),0
same,"Musculoskeletal and connective tissue disorders, Severe: patients N",Plecanatide 3 mg (N = 467),0
same,Musculoskeletal and connective tissue disorders: events E,Plecanatide 3 mg (N = 467),8
same,Musculoskeletal and connective tissue disorders: patients (%),Plecanatide 3 mg (N = 467),(1.7) %
same,Musculoskeletal and connective tissue disorders: patients N,Plecanatide 3 mg (N = 467),8
same,"Musculoskeletal chest pain, Mild: events E",Plecanatide 3 mg (N = 467),1
same,"Musculoskeletal chest pain, Mild: patients (%)",Plecanatide 3 mg (N = 467),(0.2) %
same,"Musculoskeletal chest pain, Mild: patients N",Plecanatide 3 mg (N = 467),1
same,"Musculoskeletal chest pain, Moderate: events E",Plecanatide 3 mg (N = 467),0
same,"Musculoskeletal chest pain, Moderate: patients N",Plecanatide 3 mg (N = 467),0
same,"Musculoskeletal chest pain, Severe: events E",Plecanatide 3 mg (N = 467),0
same,"Musculoskeletal chest pain, Severe: patients N",Plecanatide 3 mg (N = 467),0
same,Musculoskeletal chest pain: events E,Plecanatide 3 mg (N = 467),1
same,Musculoskeletal chest pain: patients (%),Plecanatide 3 mg (N = 467),(0.2) %
same,Musculoskeletal chest pain: patients N,Plecanatide 3 mg (N = 467),1
same,"Musculoskeletal pain, Mild: events E",Plecanatide 3 mg (N = 467),1
same,"Musculoskeletal pain, Mild: patients (%)",Plecanatide 3 mg (N = 467),(0.2) %
same,"Musculoskeletal pain, Mild: patients N",Plecanatide 3 mg (N = 467),1
same,"Musculoskeletal pain, Moderate: events E",Plecanatide 3 mg (N = 467),0
same,"Musculoskeletal pain, Moderate: patients N",Plecanatide 3 mg (N = 467),0
same,"Musculoskeletal pain, Severe: events E",Plecanatide 3 mg (N = 467),0
same,"Musculoskeletal pain, Severe: patients N",Plecanatide 3 mg (N = 467),0
same,Musculoskeletal pain: events E,Plecanatide 3 mg (N = 467),1
same,Musculoskeletal pain: patients (%),Plecanatide 3 mg (N = 467),(0.2) %
same,Musculoskeletal pain: patients N,Plecanatide 3 mg (N = 467),1
same,"Skeletal injury, events E",Plecanatide 3 mg (N = 467),0
same,"Skeletal injury, patients N",Plecanatide 3 mg (N = 467),0
same,"TE SAE: Musculoskeletal and connective tissue disorders, E events",Plecanatide 3 mg (N = 467),0
same,"TE SAE: Musculoskeletal and connective tissue disorders, N patients",Plecanatide 3 mg (N = 467),0
same,"TEAE Leading to Discontinuation: Musculoskeletal and connective tissue disorders, E events",Plecanatide 3 mg (N = 467),0
same,"TEAE Leading to Discontinuation: Musculoskeletal and connective tissue disorders, N patients",Plecanatide 3 mg (N = 467),0
same,"Musculoskeletal and connective tissue disorders [System Organ Class], events E",Plecanatide 6 mg (N = 469),11
same,"Musculoskeletal and connective tissue disorders [System Organ Class], patients (%)",Plecanatide 6 mg (N = 469),(2.3) %
same,"Musculoskeletal and connective tissue disorders [System Organ Class], patients N",Plecanatide 6 mg (N = 469),11
same,"Musculoskeletal and connective tissue disorders, Mild: events E",Plecanatide 6 mg (N = 469),6
same,"Musculoskeletal and connective tissue disorders, Mild: patients (%)",Plecanatide 6 mg (N = 469),(1.3) %
same,"Musculoskeletal and connective tissue disorders, Mild: patients N",Plecanatide 6 mg (N = 469),6
same,"Musculoskeletal and connective tissue disorders, Moderate: events E",Plecanatide 6 mg (N = 469),5
same,"Musculoskeletal and connective tissue disorders, Moderate: patients (%)",Plecanatide 6 mg (N = 469),(1.1) %
same,"Musculoskeletal and connective tissue disorders, Moderate: patients N",Plecanatide 6 mg (N = 469),5
same,"Musculoskeletal and connective tissue disorders, Severe: events E",Plecanatide 6 mg (N = 469),0
same,"Musculoskeletal and connective tissue disorders, Severe: patients N",Plecanatide 6 mg (N = 469),0
same,Musculoskeletal and connective tissue disorders: events E,Plecanatide 6 mg (N = 469),11
same,Musculoskeletal and connective tissue disorders: patients (%),Plecanatide 6 mg (N = 469),(2.3) %
same,Musculoskeletal and connective tissue disorders: patients N,Plecanatide 6 mg (N = 469),11
same,"Musculoskeletal chest pain, Mild: events E",Plecanatide 6 mg (N = 469),0
same,"Musculoskeletal chest pain, Mild: patients N",Plecanatide 6 mg (N = 469),0
same,"Musculoskeletal chest pain, Moderate: events E",Plecanatide 6 mg (N = 469),0
same,"Musculoskeletal chest pain, Moderate: patients N",Plecanatide 6 mg (N = 469),0
same,"Musculoskeletal chest pain, Severe: events E",Plecanatide 6 mg (N = 469),0
same,"Musculoskeletal chest pain, Severe: patients N",Plecanatide 6 mg (N = 469),0
same,Musculoskeletal chest pain: events E,Plecanatide 6 mg (N = 469),0
same,Musculoskeletal chest pain: patients N,Plecanatide 6 mg (N = 469),0
same,"Musculoskeletal pain, Mild: events E",Plecanatide 6 mg (N = 469),0
same,"Musculoskeletal pain, Mild: patients N",Plecanatide 6 mg (N = 469),0
same,"Musculoskeletal pain, Moderate: events E",Plecanatide 6 mg (N = 469),1
same,"Musculoskeletal pain, Moderate: patients (%)",Plecanatide 6 mg (N = 469),(0.2) %
same,"Musculoskeletal pain, Moderate: patients N",Plecanatide 6 mg (N = 469),1
same,"Musculoskeletal pain, Severe: events E",Plecanatide 6 mg (N = 469),0
same,"Musculoskeletal pain, Severe: patients N",Plecanatide 6 mg (N = 469),0
same,Musculoskeletal pain: events E,Plecanatide 6 mg (N = 469),1
same,Musculoskeletal pain: patients (%),Plecanatide 6 mg (N = 469),(0.2) %
same,Musculoskeletal pain: patients N,Plecanatide 6 mg (N = 469),1
same,"Skeletal injury, events E",Plecanatide 6 mg (N = 469),1
same,"Skeletal injury, patients (%)",Plecanatide 6 mg (N = 469),(0.2) %
same,"Skeletal injury, patients N",Plecanatide 6 mg (N = 469),1
same,"TE SAE: Musculoskeletal and connective tissue disorders, E events",Plecanatide 6 mg (N = 469),0
same,"TE SAE: Musculoskeletal and connective tissue disorders, N patients",Plecanatide 6 mg (N = 469),0
same,"TEAE Leading to Discontinuation: Musculoskeletal and connective tissue disorders, E events",Plecanatide 6 mg (N = 469),0
same,"TEAE Leading to Discontinuation: Musculoskeletal and connective tissue disorders, N patients",Plecanatide 6 mg (N = 469),0
